The values below come from article PMC3900688, “Expression and Purification of Chaperone-Active Recombinant Clusterin” (PLoS ONE, 2014).

This data set deals with the molecule itself. Description: SEC; Superose 6 10/300 column in PBS/Az, 0.3 ml/min, A280 monitored; self-association (mixture of oligomers). On the technique in general: In gel filtration, larger molecules generally elute earlier.

B1: wild type clusterin purified from human plasma (natural protein)
chain 1: DQTVSDNELQEMSNQGSKYVNKEIQNAVNGVKQIKTLIEKTNEERKTLLSNLEEAKKKKEDALNETRESETKLKELPGVCNETMMALWEECKPCLKQTCMKFYARVCRSGSGLVGRQLEEFLNQSSPFYFWMNGDRIDSLLENDRQQTHMLDVMQDHFSRASSIIDELFQDRFFTREPQDTYHYLPFSLPHRRPHFFFPKSRIVR
chain 2: SLMPFSPYEPLNFHAMFQPFLEMIHEAQQAMDIHFHSPAFQHPPTEFIREGDDDRTVCREIRHNSTGCLRMKDQCDKCREILSVDCSTNNPSQAKLRRELDESLQVAERLTRKYNELLKSYQWKMLNTSSLLEQLNEQFNWVSRLANLTQGEDQYYLRVTTVASHTSDSDVPSGVTEVVVKLFDSDPITVTVPVEVSRKNPKFMETVAEKALQEYRKKHREE
modifications: glycosylated | glycosylated
notes: clusterin beta-chain, human; joined to the alpha-chain by 5 disulfide bonds; clusterin alpha-chain, human; joined to the beta-chain by 5 disulfide bonds; Disulphide-bonded alpha-beta heterodimer with heterogeneous glycosylation, from pooled donors; also called wtCLU; human plasma clusterin
In the case of B1, the binding result is “binds”.

B2: mammalian cell-expressed recombinant clusterin secreted by stably transfected HEK293 cells (natural protein, human)
chain 1: B1 chain 1
chain 2: B1 chain 2
modifications: glycosylated | glycosylated
notes: clusterin beta-chain, human, from human CLU cDNA in pRcCMV; secreted and cleaved into alpha- and beta-chains; clusterin alpha-chain, human, from human CLU cDNA in pRcCMV; Disulphide-bonded alpha-beta heterodimer, less glycosylated than plasma clusterin; No tag is stated; also called m-rCLU; rCLU
Turning to B2, the binding result is listed as “binds”.
